Among the data in article PMC7201828, “Comparison of Inhibitor and Substrate Selectivity between Rodent and Human Vascular Adhesion Protein-1” (Mediators of Inflammation, 2020) are Km and Vmax values, retold here.

Common to all, as to assay: purified protein, by the assay type
Substrate in series [1]: NCCc1ccc(O)cc1
The settings on record: pH 7.4, 37.0 °C.

Substrate in series [2]: NCCc1ccccc1
Conditions: other: recombinant human VAP-1, substrate; pH 7.4; 37.0 °C.

Substrate in series [3]: NCc1ccccc1
Conditions: pH 7.4, 37.0 °C.

[4] abbreviates: other: recombinant human VAP-1, substrate.
[5] abbreviates: other: recombinant rat VAP-1, substrate.
[6] abbreviates: other: recombinant mouse VAP-1, substrate.

B1: recombinant human VAP-1 (Homo sapiens) (protein)
chain: GRGGDGGEPSQLPHCPSVSPSAQPWTHPGQSQLFADLSREELTAVMRFLTQRLGPGLVDAAQARPSDNCVFSVELQLPPKAAALAHLDRGSPPPAREALAIVFFGRQPQPNVSELVVGPLPHPSYMRDVTVERHGGPLPYHRRPVLFQEYLDIDQMIFNRELPQASGLLHHCCFYKHRGRNLVTMTTAPRGLQSGDRATWFGLYYNISGAGFFLHHVGLELLVNHKALDPARWTIQKVFYQGRYYDSLAQLEAQFEAGLVNVVLIPDNGTGGSWSLKSPVPPGPAPPLQFYPQGPRFSVQGSRVASSLWTFSFGLGAFSGPRIFDVRFQGERLVYEISLQEALAIYGGNSPAAMTTRYVDGGFGMGKYTTPLTRGVDCPYLATYVDWHFLLESQAPKTIRDAFCVFEQNQGLPLRRHHSDLYSHYFGGLAETVLVVRSMSTLLNYDYVWDTVFHPSGAIEIRFYATGYISSAFLFGATGKYGNQVSEHTLGTVHTHSAHFKVDLDVAGLENWVWAEDMVFVPMAVPWSPEHQLQRLQVTRKLLEMEEQAAFLVGSATPRYLYLASNHSNKWGHPRGYRIQMLSFAGEPLPQNSSMARGFSWERYQLAVTQRKEEEPSSSSVFNQNDPWAPTVDFSDFINNETIAGKDLVAWVTAGFLHIPHAEDIPNTVTVGNGVGFFLRPYNFFDEDPSFYSADSIYFRGDQDAGACEVNPLACLPQAAACAPDLPAFSHGGFSHN
Consider B1, for which the Michaelis constant (Km) in series [1] (setting [4]) amounted to 299 µM; in series [2] it was 5.51 ± 5.51 mM; in series [3] (setting [4]) it was 45.3 ± 50.7 µM. The Vmax is 0.40 μmoles/min/mg prot in series [1] (setting [4]), 7.15 µmol/min/mg in series [2] and 11.2 µmol/min/mg in series [3] (setting [4]).

B2: recombinant rat VAP-1 (Rattus norvegicus) (protein)
chain: RSGDGGRLSQPLHCPSVLPSVQPQTHPGQSQPFADLSPEELTAVMSFLIKHLGPGLVDAAQARPSDNCVFSVELQLPAKAAALAHLDRGGPPPVREALAIIFFGGQPKPNVSELVVGPLPHPSYMRDVTVERHGGPLPYYRRPVLTREYQDIQEMIFHRELPQASGLLHHCCFYKRQGHNLLKMTTAPRGLQSGDRATWFGIYYNLSGAGFYPHPIGLELLVDHKALDPALWTIQKVFYQGRYYESLTQLEDMFEAGLVNVVLVPDNGTGGSWSLKSSVPPGRAPPLQFHPEGPRFSVQGSQVRSSLWAFSFGLGAFSGPRIFDIRFQGERVAYEISVQEAIALYGGNSPASMSTCYMDGSFGIGKYSTPLTRGVDCPYLATYVDWHFLLESQTPKTLRDAFCVFEQNQGLPLRRHHSDFYSHYFGGVVETVLVVRSVATLLNYDYVWDMVFHSNGAIEVKFHATGYITSAFFFGAGEKFGNRVAEHTLGTVHTHNAHFKVDLDVAGLKNWAWAEDLAFVPMNVPWQPEFQMQRLQVTRKLLETEEEAAFPLGNATPRYLYLASNHSNKWGHRRGYRIQILSFAGKPLPQESPIEKAFTWGRYHLAVTQRKEEEPSSSSIYNQNDPWTPTVDFTDFISNETIAGEDLVAWVTAGFLHIPHAEDIPNTVTVGNGVGFFLRPYNFFDEDPSFYSPDSIYFRKDQDVTDCEVNSLACLSQTANCVPDLPAFSHGGFTYK
With B2, in series [1] (setting [5]), the Michaelis-Menten constant (Km) was found to be 8.31 µM and the Vmax worked out at 1.19 μmoles/min/mg prot. In series [3] (setting [5]), the Michaelis constant (Km) amounted to 4.38 ± 0.361 µM and the Vmax came to 20.2 µmol/min/mg.

B3: recombinant mouse VAP-1 (Mus musculus) (protein)
chain: RSGDGGGLSQPLHCPSVLPSVQPRTHPSQSQPFADLSPEELTAVMSFLTKHLGPGLVDAAQARPSDNCVFSVELQLPAKAAALAHLDRGGPPPVREALAIIFFGGQPKPNVSELVVGPLPHPSYMRDVTVERHGGPLPYYRRPVLDREYQDIEEMIFHRELPQASGLLHHCCFYKHQGQNLLTMTTAPRGLQSGDRATWFGLYYNLSGAGFYPHPIGLELLIDHKALDPALWTIQKVFYQGRYYESLTQLEDQFEAGLVNVVLVPNNGTGGSWSLKSSVPPGPAPPLQFHPQGPRFSVQGSQVSSSLWAFSFGLGAFSGPRIFDIRFQGERVAYEISVQEAIALYGGNSPASMSTCYVDGSFGIGKYSTPLIRGVDCPYLATYVDWHFLLESQAPKTLRDAFCVFEQNQGLPLRRHHSDFYSHYFGGVVGTVLVVRSVSTLLNYDYIWDMVFHPNGAIEVKFHATGYISSAFFFGAGEKFGNRVGAHTLGTVHTHSAHFKVDLDVAGLKNWAWAEDMAFVPTIVPWQPEYQMQRLQVTRKLLETEEEAAFPLGGATPRYLYLASNHSNKWGHRRGYRIQILSFAGKPLPQESPIEKAFTWGRYHLAVTQRKEEEPSSSSIFNQNDPWTPTVNFTDFISNETIAGEDLVAWVTAGFLHIPHAEDIPNTVTAGNSVGFFLRPYNFFDEDPSFHSADSIYFREGQDATACEVNPLACLSQTATCAPEIPAFSHGGFAYRDN
As for B3, in series [3] (setting [6]), the Michaelis-Menten constant (Km) was 13.1 ± 11.4 µM and the Vmax is 20.1 µmol/min/mg.

The term Km denotes the concentration of substrate that gives half-maximal velocity.
